Measured values as given in US20110287023A1 (AstraZeneca / MedImmune, published 2011).

T1: HMG1 B Box peptide amino acids 91-169
T1 construct: also called HMG1 peptide 91-169
T1 peptide: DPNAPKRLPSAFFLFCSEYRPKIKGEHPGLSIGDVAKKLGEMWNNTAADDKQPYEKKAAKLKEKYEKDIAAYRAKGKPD

T2: HMG1 B Box peptide amino acids 150-183
T2 peptide: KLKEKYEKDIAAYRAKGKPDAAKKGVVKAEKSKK

T3: recombinant rat HMGB-1 labelled with europium (rat, UniProt P63159 1-215, limits assumed, Eu label, molar ratio HMGB-1 to Eu 1:5)
T3 construct: also called Europium-labeled HMGB-1
T3 sequence (looked up): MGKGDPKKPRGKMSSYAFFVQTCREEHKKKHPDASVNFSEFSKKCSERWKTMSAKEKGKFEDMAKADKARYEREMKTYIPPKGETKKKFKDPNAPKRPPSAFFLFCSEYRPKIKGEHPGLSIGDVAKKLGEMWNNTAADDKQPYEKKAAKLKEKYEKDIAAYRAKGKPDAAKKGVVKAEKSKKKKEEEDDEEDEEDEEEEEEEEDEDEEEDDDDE

T4: HMG1 purified from calf (bovine) thymus (bovine, UniProt P10103 2-215)
T4 construct: also called Calf thymus HMGB1; thymus HMG1
T4 sequence (looked up): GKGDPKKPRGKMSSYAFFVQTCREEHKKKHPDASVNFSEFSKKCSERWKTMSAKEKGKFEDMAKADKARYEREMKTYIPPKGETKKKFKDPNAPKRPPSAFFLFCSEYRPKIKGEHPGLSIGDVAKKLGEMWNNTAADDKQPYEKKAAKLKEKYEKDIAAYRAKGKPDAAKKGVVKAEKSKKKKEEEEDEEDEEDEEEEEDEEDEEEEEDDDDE

T5: HMG2 coated on ELISA plates (Bos taurus (Bovine), UniProt P40673 2-209)
T5 construct: also called HMGB2; HMBG2
T5 sequence: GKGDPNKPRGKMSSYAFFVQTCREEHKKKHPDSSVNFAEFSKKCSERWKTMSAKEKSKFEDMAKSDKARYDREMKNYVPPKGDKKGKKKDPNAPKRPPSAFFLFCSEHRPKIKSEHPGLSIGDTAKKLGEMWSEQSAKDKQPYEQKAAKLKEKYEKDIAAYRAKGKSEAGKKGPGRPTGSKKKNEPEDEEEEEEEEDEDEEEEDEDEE

T6: activated HMG1 from LPS stimulated THP-1 cells (human, UniProt P09429 1-215)
T6 sequence (looked up): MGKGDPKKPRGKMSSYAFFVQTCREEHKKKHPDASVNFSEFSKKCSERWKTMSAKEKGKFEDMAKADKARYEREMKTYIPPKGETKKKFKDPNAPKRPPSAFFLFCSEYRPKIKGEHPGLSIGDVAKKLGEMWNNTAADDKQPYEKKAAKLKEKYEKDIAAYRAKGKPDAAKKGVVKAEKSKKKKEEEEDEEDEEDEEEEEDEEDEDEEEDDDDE


Legend:
[1] = target: T1, HMG1 B Box peptide amino acids 91-169; test: ELISA, HMG1 B Box peptide 91-169 coated at 10 ug/ml, antibody titrated, OD 450
Experimental: (§1) The plate was then blocked with 4% milk powder dissolved in PBS at 37° C. for 1 hour. The blocking solution was removed and replaced with human anti-HMG1 antibodies at various concentrations (see FIGS. 5A-B). […] HRP activity was detected with Sureblue HRP substrate (KPL). Plates were read at 450 nm using a Kinetic Microplate Reader (Molecular Devices). […] After washing and blocking with 1% BSA in PBS, the biotinylated peptides were individually added into the avidin coated wells and incubated for 30 min at room temperature. The serial diluted antibody G4, S16 and S6 at the initial concentration at 10 μg/ml were then transferred into the wells followed by adding mouse anti human IgG-HRP conjugate (Pierce). Detection was accomplished by adding 50 μl of tetramethylbenzidine (TMB) substrate (KPL) and the absorbance was read at 450 nm.

[2] = target: T2, HMG1 B Box peptide amino acids 150-183; test: ELISA, HMG1 B Box peptide 150-183 coated at 10 ug/ml, antibody titrated, OD 450
Experimental: as §1

[3] = target: T3, recombinant rat HMGB-1 labelled with …; test: inhibition of binding of 2 nM Eu-labelled recombinant rat HMGB-1 to THP-1 cells
Experimental: HMG1 binding to THP-1 Cells: Recombinant rat HMGB-1 was labeled using Eu-labelling Kit from PerkinElmer. Molar ratio of HMGB-1 to Eu is 1:5. THP-1 were cultured as the protocol from ATCC. Cells were harvested and suspended at concentration 1×10⁶/ml in assay buffer containing 1×DELFIA L*R binding buffer (PerkinElmer), 50% of DELFIA stabilizer (PerkinElmer) and 0.05% of sodium azide. 100 μl of cells (1×10⁵) was added into wells in 96 well cell culture plate. The plate was incubated with gentle shaking at 4° C. for one hour. 100 μl of assay buffer containing 2 nM of Europium-labeled HMGB-1 mixed with various concentrations (333, 166.5, 83.25, 41.6, 20.8, 10.4 and 5.2 nM) of human anti-HMGB1 antibodies E11 or G2 or soluble human RAGE-Fc, were added into each wells respectively. After one hour incubation with gentle shaking at 4° C., the cells were washed four times with 1×L*R wash buffer (PerkinElmer) by centrifuging at 1200 rpm×5 min. 200 μl of enhancement solution was added into each well to dissociate and enhance Eu fluorescence at 615 nm. The fluorescence was measured with Wallac Victor Fluorometer. Assay was performed in triplicate and human antibody R3-47 was used the negative isotype control.

[4] = target: T7, recombinant HMG1 produced in E. coli as a calmodulin binding protein (CBP) fusion (human); test: cell-based or functional assay
[5] = target: T4, HMG1 purified from calf (bovine) thymus; test: direct ELISA, calf thymus HMGB1 coated at 5 ug/mL, antibody at 10 ug/mL, anti-human kappa/lambda-HRP, OD 490
Experimental: (§2) Binding to HMG1 vs. HMG2: Ultra high-binding ELISA plates (ThermoLab systems, #3855) were coated with either 5 ug/mL of Calf thymus HMGB1 or HMBG2 diluted in 10 mM Phosphate buffered saline (PBS), pH 7.2 and incubate overnight at 4 degrees. The plates were washed twice with Ca and Mg free PBS and 100 microliters of anti-HMGB1 antibody diluted in 10 mM PBS, pH 7.2+1% bovine serum albumin (BSA) to a final concentration of 10 ug/mL was added to each well and the plates were incubated 1 hour at room temperature. The wells were washed three times with 100 μl of PBS, pH 7.2. HRP labeled goat-anti-human IgG Kappa-chain (KPL, #14-10-10) and goat-anti-human IgG Lambda-chain (KPL, #14-10-11) were diluted in 10 mM PBS+1% BSA 1:1000 and 100 μl were added to each well and incubated for 1 hour at room temperature. The wells were then washed three times with 100 μl of PBS, pH 7.2. OPD substrate (Pierce chemical company, #34006) was prepared following the manufacturers instructions and 100 μl of prepared substrate was added to each well and the plates incubated at room temperature in the dark for 20-30 minutes. The reaction was stopped with the addition of 100 μl of 2M H₂SO₄, and the plates read on a plate reader at a wavelength of 490 nm.

[6] = target: T5, HMG2 coated on ELISA plates; test: direct ELISA, HMGB2 coated at 5 ug/mL, OD 490
Experimental: as §2

[7] = target: T7, recombinant HMG1 produced in E. coli as …; test: BIAcore 3000, mAb amine-coupled to CM5, HMG1 injected, steady-state model
Experimental: HMG1 Binding Affinity via BIAcore Analysis: All experiments were performed on a BIAcore 3000 instrument (BIAcore, Inc., Piscataway, N.J.). Briefly, each mAb was immobilized to a CM5 sensor chip using a standard amine coupling chemistry. Separately a reference (control) flow cell was also prepared. Two-fold, serial dilutions of HMG1 in instrument buffer were sequentially injected at a slow flow rate over the individual mAb and reference flow-cell surfaces. Following the binding and dissociation of HMG1, the mAbs surfaces were regenerated with a brief pulse of 1M NaCl-50 mM NaOH. At the end of each experiment, the binding curves were evaluated using a steady-state model available through the BIAevaluation software supplied by BIAcore, Inc. (Piscataway, N.J.).

[8] = target: T6, activated HMG1 from LPS stimulated …; test: cell-based or functional assay
[9] = target: T7, recombinant HMG1 produced in E. coli as …; test: ELISA, coated RAGE-Fc, rHMG1 preincubated with antibody
Experimental: HMG1 binding to RAGE-Ig by ELISA: 50 μl/well of RAGE-Fc fusion protein at 5 μg/ml in PBS was added to each well of an ELISA plate and incubated overnight at 4° C. The plate was then blocked with 200 μl of 5% milk at 37° C. for 1 hr and washed 3× with PBS/Tween. 50 μl/well of diluted HMGB1 solution. For dose curves, HMGB1 concentrations started at 4 ug/ml in PBS. For antibody blocking the HMGB1 was preincubated in another plate with human anti-HMG1 antibodies or buffer, then transferred to the RAGE-coated plate. The plates were then incubated at room temperature for 2 hours and washed 3×. To detect any HMG1 bound to the immobilized RAGE-Fc a mixture of biotinylated mouse anti-HMG1 mAbs (10D4, 4H11, 3E10 and 5C12) each at 1 ug/ml, total Ab: 4 ug/ml, were added to each well and the plate was incubated for 1 hour at room temperature. The plate was then washed and Strepavidin-HPR was added to each well and incubated 15 min. The plate was then washed 3× and blotted dry. 100 μl of TMB developing agent was added and the plate read at 650 nm. Values were calculated as percent of inhibition with HMG1 alone equal to 0% inhibition. The data in FIG. 9 and summarized in Table 1 represent the average of two separate experiments.

[10] = target: T7, recombinant HMG1 produced in E. coli as …; test: sandwich ELISA: antibody titrated and captured on anti-human IgG Fc, soluble recombinant HMG1 at 2 ug/ml, mouse anti-HMGB1 and anti-mouse IgG-HRP, OD 450
Experimental: Sandwich ELISA (soluble HMG1): Immunoplates (EIA/RIA plate, High binding, Costar) were coated with anti human IgG Fc at 10 μg/ml in PBS (pH 7.2) and incubated at 4° C. overnight. The coating reagent was removed and the plates were rinsed briefly with PBS. The plates were then blocked with 4% milk for 1 hour at 37° C. and rinsed with PBS. The anti-HMG1 antibodies were diluted in 4% milk. For serial dilutions, the antibodies were used at a starting concentration of 20 μg/ml. The diluted anti-HMG1 antibodies were then added into plate and incubated for 1 hr at 37° C. The plate was then washed 10 times with PBST (PBS/0.1% tween 20) and incubate with antigen (HMGB1, 2 μg/ml; or 0.7 μg/ml for native HMGB1) in 4% milk and incubated at 37° C. for 1 h. The plate was then wash 10 times and incubated with mouse anti-HMGB1, 1 μg/ml in 4% milk at 37° C. for 1 h. The plate was washed 10 times and incubated with anti-mouse IgG-HRP at 1:1000 at 37° C. for 1 h. The plate was then washed and developed. HRP activity was detected with Sureblue HRP substrate (KPL). Plates were read at 450 nm using a Kinetic Microplate Reader (Molecular Devices).

| Binder | binding result [1] | binding result [2] | IC50 [3] [nM] | IC50 IL-1β [4] [µg/mL] | IC50 IL-6 [4] [nM] | IC50 IL-12 [4] [µg/mL] | IC50 TNF-α [4] [µg/mL] | binding result [5] | binding result [6] | Kd [7] [nM] | IC50 nm IL-6 Native HMGB [8] [nM] | IC50 NO [4] [µg/mL] | percent inhibition of HMG1 binding to RAGE [9] [%] | EC50 (read off the curve) [10] [µg/mL] |
| --- | --- | --- | --- | --- | --- | --- | --- | --- | --- | --- | --- | --- | --- | --- |
| human anti-HMG1 antibody G2 (antibody, IgG1, V domains shown, full length IgG1 made from a human Fab phage clone) VH: EVQLLESGGGLVQPGGSLRLSCAASGFTFSWYKMQWVRQAPGKGLEWVSGISPSGGSTAYADSVKGRFTISRDNSKNTLYLQMNSLRAEDTAVYYCAKMGLFNTGNSYVDYWGQGTLVTVSS VL: AQSELTQPPSVSEAPGQRVTISCSGSTSNIGNNAVIWYQQLPGKAPKLLIYYDDLLPSGVSDRFSGSKSGTSGSLAISGLQSEDEADYYCASWDDNLNGPLFGGGTKLTVL | no binding (tested: 10 ug/ml (log 1.0)) | no binding (tested: 10 ug/ml (log 1.0)) | 73.3 | 5.03 | 0.994 | 1.26 | 1.35 | binds | no binding (tested: 10 ug/mL (single concentration)) | 101 | – | – | – | – |
| human anti-HMG1 antibody S17 (antibody, IgG1, V domains shown, full length IgG1 made from a human Fab phage clone) VH: EVQLLESGGGLVQPGGSLRLSCAASGFTFSYYDMHWVRQAPGKGLEWVSRISPSGGYTWYADSVKGRFTISRDNSKNTLYLQMNSLRAEDTAVYYCTRGRYTSGWHEYFDPWGQGTLVTVSS VL: DIQMTQSPSSLSASVGDRVTITCRASQSIGTYLNWYQQKPGTAPKVLIYAASSLQSGVPSRFSGSGSGTDFTLTISSLQPEDFSTYYCQQSYNTPRTFGQGTKLEIK | no binding (tested: 10 ug/ml (log 1.0)) | no binding (tested: 10 ug/ml (log 1.0)) | – | 0.0809 | 0.162 | – | – | binds | no binding (tested: 10 ug/mL (single concentration)) | 331 | 11.4 | 41.7 | – | – |
| human anti-HMG1 antibody S2 (antibody, V domains shown, full length IgG1 made from a human Fab phage clone; also called ATCC PTA-6142) VH: EVQLLESGGGLVQPGGSLRLSCAASGFTFSGYMMVWVRQAPGKGLEWVSRISPSGGQTGYADSVKGRFTISRDNSKNTLYLQMNSLRAEDTAVYYCAREEGGSYGAFDIWGQGTMVTVSS VL: not shown | no binding (tested: 10 ug/ml (log 1.0)) | no binding (tested: 10 ug/ml (log 1.0)) | – | 0.22 | 0.163 | – | 0.0642 | binds | no binding (tested: 10 ug/mL (single concentration)) | 36 | – | – | ≥ 35 | ~0.08 |
